Results: article PMC10237653

Legend:
[1] = target: GST-fused AjTmod after the addition of His-fused STPKLRR (phosphorylated AjTmod) (Apostichopus japonicus); experiment: MST; as a4, but His-fused STPKLRR (5 uM) added to GSTTmod/His-fused actin and incubated for 10 min
[2] = target: GST-fused AjTmod (complete AjTmod sequence) (Apostichopus japonicus); experiment: MST; Monolith NT.115; NT-647-NHS labelled protein (about 5 uM) with 16 serial concentrations of unlabelled His-fused actin; 50 mM Tris-HCl pH 8.0, 0.02% Tween 20; 25 °C

Kd [1]: 7.16 nM
Kd [2]: 1.46 nM
Substance: His-fused actin (natural protein)
